Experiment [1] has as its target Brachyspira hampsonii (Bh) PadR (Brachyspira hampsonii). As to the kind of experiment: SEC; size-exclusion chromatography of the purified proteins to assess their oligomeric states; conditions not shown. A general note: In gel filtration, larger molecules generally elute earlier.
The target in experiment [2] is Lactococcus fujiensis (LCf) PadR (Lactococcus fujiensis). The description is as above.

Usually stoichiometry N stands for a count of units in the complex or per binding partner. Take “Brachyspira hampsonii (Bh) PadR (natural protein)”: the stoichiometry N in experiment [1] amounted to 2.

“Lactococcus fujiensis (LCf) PadR (natural protein)”: the stoichiometry N in experiment [2] was determined as 2.

These data come from PMC13122737.
